From patent US20220177583A1 (University of California, published 2022)

T1: human CLDN6, endogenously expressed on cancer cell lines (human, UniProt P56747 1-220)
T1 construct: also called Endogenous CLDN6+; CLDN6 on ARK2, OVCA429, UMUC4 cells
T1 sequence: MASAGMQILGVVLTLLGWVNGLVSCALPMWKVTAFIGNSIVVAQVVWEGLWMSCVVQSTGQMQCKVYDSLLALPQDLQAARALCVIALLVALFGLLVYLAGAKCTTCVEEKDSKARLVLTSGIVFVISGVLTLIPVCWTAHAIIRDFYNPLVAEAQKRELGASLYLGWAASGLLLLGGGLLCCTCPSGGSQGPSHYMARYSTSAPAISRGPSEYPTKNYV

T2: mouse CLDN6 fused to GFP, expressed on engineered HEK293T cells (mouse, UniProt Q9Z262 1-219)
T2 construct: whole, on cells; also called HEK293T-CLDN6-mGFP Artificial CLDN6+ (mouse); murine CLDN6; not shown: GFP tag
T2 sequence (looked up): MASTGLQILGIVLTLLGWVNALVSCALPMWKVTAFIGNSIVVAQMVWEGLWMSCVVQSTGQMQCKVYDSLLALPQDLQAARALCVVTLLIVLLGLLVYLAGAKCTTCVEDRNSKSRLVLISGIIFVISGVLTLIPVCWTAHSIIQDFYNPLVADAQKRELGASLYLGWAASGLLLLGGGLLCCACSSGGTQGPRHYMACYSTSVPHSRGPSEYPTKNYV


Key:
[1] = biological target: T1, human CLDN6, endogenously expressed on …; experiment: FACS, ARK2 cells, 0.3 ug Ab
[2] = biological target: T1, human CLDN6, endogenously expressed on …; experiment: FACS, ARK2 cells, 1.5 ug Ab
[3] = biological target: T1, human CLDN6, endogenously expressed on …; experiment: FACS, OVCA429 cells, 1.5 ug Ab
[4] = biological target: T2, mouse CLDN6 fused to GFP, expressed on …; experiment: FACS, 293T clone with mouse CLDN6

| Binder | FACS signal [1] | FACS signal [2] | FACS signal [3] | FACS signal [4] |
| --- | --- | --- | --- | --- |
| AB18-chim (antibody, V domains shown, Parental antibody prior to humanization ('chim'); also called pre-humanized form of AB18) VH: QVQLKQSGPELEKPGASVKISCKASGYSFTGYNMNWVKQSNGKSLEWIGNIDPYYGGSTYNQKFTGKATLTVDKSSSTAYMQLKSLTSEDSAVYYCARERSGYVFSAMDYWGQGTSVTVSS VL: NIMMTQSPSSLAVSAGEKVTMSCKSSQSVLFSSNQKNYLAWYQQKPGQSPRLLIYWASTRESGVPDRFTGSGSGTDFTLTISNVQAEDLAVYYCHQYLSSRTFGAGTKLELK | 3440 | 9150 | 25500 | – |
| AB9-3 (antibody, V domains shown, Humanized; also called humanized AB 9-3) VH: QVQLVQSGAEVKKPGASVKMSCKASGYRFTDYNMHWVRQAPGQGLEWIGYINPNNGGTNYAQKFQGRATLTVDTSTSTAYMELSSLRSEDTAVYYCARDYLYFFDCWGQGTLLTVSS VL: DIQMTQSPSSLSASVGDRVTITCLASQTIGTWLAWYQQKPGKAPKLLIYAAASLADGVPSRFSGSGSGTDFTFTISSLQPEDFVTYYCQQLYSIPRTFGQGTKLEIK | 1140 | 1470 | 1260 | – |
| AB3-2 (antibody, V domains shown, Humanized; also called humanized AB 3-2) VH: EVQLLESGGGLVQPGGSMRLSCAASGFTFSNYWMNWVRQAPGKGLEWVAQIRLKSDNYATHYADSVKGRFTISRDDSKNTVYLQMNSLRAEDTGVYYCNDGPPSGCWGQGTLLTVSS VL: DIQMTQSPSSLSASVGDRVTITCRISENIYSYLAWYQQKPGKAPKLLIYNAKILVEGVPSRFSGSGSGTDFTLTISSLQPEDFATYYCQHHYTVPWTFGQGTKLEIK | 14700 | 33600 | 85900 | 31700 |
| AB3-5 (antibody, V domains shown, Humanized; also called humanized AB 3-5) VH: EVQLLESGGGLVQPGGSMRLSCAASGFTFSNYWMNWVRQAPGKGLEWVAQIRLKSDNYATHYADSVKGRFTISRDDSKNTVYLQMNSLRAEDTGVYYCNDGPPSGYWGQGTLLTVSS VL: DIQMTQSPSSLSASVGDRVTITCRISENIYSYLAWYQQKPGKAPKLLVYNAKILVEGVPSRFSGSGSGTDFTLTISSLQPEDFGTYYCQHHYTVPWTFGQGTKLEIK | 1280 | 2910 | 2950 | 783 |
| AB18-3 (antibody, V domains shown, Humanized; full-length IgG; also called humanized AB 18-3) VH: QVQLVQSGAEVKKPGASVKVSCKASGYSFTGYNMNWVRQAPGQGLEWMGNIDPYYGGSTYAQKFQGRVTMTVDTSTSTVYMELSSLRSEDTAVYYCARERSGYVFSAMDYWGQGTLVTVSS VL: not shown | 1080 | 1210 | 2700 | – |
| AB18-5 (antibody, V domains shown, Humanized; also called humanized AB 18-5) VH: QVQLVQSGAEVKKPGASVKISCKASGYSFTGYNMNWVRQAPGQGLEWIGNIDPYYGGSTYAQKFQGRATLTVDTSTSTAYMELSSLRSEDTAVYYCARERSGYVFSAMDYWGQGTLVTVSS VL: not shown | 1310 | 1330 | 4270 | – |
| AB18-6 (antibody, V domains shown, Humanized; also called humanized AB 18-6) VH: QVQLVQSGAEVKKPGASVKISCKASGYSFTGYNMNWVRQAPGQGLEWIGNIDPYYGGSTYAQKFQGRATLTVDTSTSTAYMELSSLRSEDTAVYYCARERSGYVFSAMDYWGQGTLVTVSS VL: DIVMTQSPDSLAVSLGERVTMNCKSSQSVLFSSNQKNYLAWYQQKPGQPPKLLIYWASTRESGVPDRFSGSGSGTDFTLTISSVQAEDVAVYYCHQYLSSRTFGQGTKLEIK | 1390 | 1940 | 6750 | – |
| AB18-4 (antibody, V domains shown, Humanized; also called humanized AB 18-4) VH: QVQLVQSGAEVKKPGASVKVSCKASGYSFTGYNMNWVRQAPGQGLEWMGNIDPYYGGSTYAQKFQGRVTMTVDTSTSTVYMELSSLRSEDTAVYYCARERSGYVFSAMDYWGQGTLVTVSS VL: DIVMTQSPDSLAVSLGERVTMNCKSSQSVLFSSNQKNYLAWYQQKPGQPPKLLIYWASTRESGVPDRFSGSGSGTDFTLTISSVQAEDVAVYYCHQYLSSRTFGQGTKLEIK | 1130 | 1380 | 3220 | – |
| AB1-11 (antibody, V domains shown, Humanized; also called humanized AB1-11; HU-11) VH: QVQLVQSGAEVKKPGASVKMSCKASGYTFTTYTMHWVRQAPGQGLEWIGFINPSSGYTDYAQKFQGRVTLTADKSTSTVYMELSSLRSEDTAVYYCANGDYYVAYWGQGTLVTVSS VL: DIQLTQSPSSLSASVGDRVTMTCTASSSVSSTYFHWYQQKPGKAPKLWIYSTSNLASGVPSRFSGSGSGTDYTLTISSMQPEDAATYYCHQYHRSPLTFGQGTKLEIK | 53900 | 97700 | – | 101000 |
| AB9-chim (antibody, V domains shown, Parental antibody prior to humanization ('chim'); also called pre-humanized form of AB9) VH: EVQLQQSGPELVKPGASVKMSCKASGYRFTDYNMHWVKQSHGKSLEWIGYINPNNGGTNYNQNFKGKATLTVNKSSSTAYMELRSLTSEDSAAYYCARDYLYFFDCWGQGTTLTVSS VL: DIQMTQSPASQSASLGESVTITCLASQTIGTWLAWYQQKPGKSPQLLIYAAASLADGVPSRFSGSGSGTRFSFKISSLQAEDFVSYYCQQLYSIPRTFGGGTKLEIK | 3510 | 4490 | 3570 | – |
| AB4-6 (antibody, V domains shown, Humanized; also called humanized AB 4-6) VH: QVQLVQSGAEVKKPGASVKMSCKASGYTFTSYTMHWIRQAPGQGLEWIGYINPSSTYTHYAQKFQGRATLTADKSTSTAYMELSSLRSEDTAVYYCSRGELGGFAYWGQGTLVTVSS VL: DVVMTQSPLSLPVTLGQPASISCRSSQSLVHSDGNTYLNWYQQRPGQSPRLLIYKVSNRFSGVPDRFSGSGSGTDFTLKISRVEAEDVGVYYCSQSTHVPYTFGQGTKLEIK | 3300 | 9840 | – | 14200 |
| AB4-10 (antibody, V domains shown, Humanized; full-length IgG; see note of AB4-8; also called humanized AB 4-10) VH: QVQLVQSGAEVKKPGASVKMSCKASGYTFTSYTMHWIRQAPGQGQEWIGYINPSSTYTHYIKKFKDRATLTADTSTSTAYMELSSLRSEDTAVYYCSRGELGGFAYWGQGTLVTVSS VL: DVVMTQSPLSLPVTLGQPASISCRSSQSLVHSDGNTYLNWYQQRPGQSPRLLIYKVSNRFSGVPDRFSGSGSGTDFTLKISRVEAEDVGVYYCSQSTHVPYTFGQGTKLEIK | 7210 | 20200 | – | 2650 |
| AB4-8 (antibody, V domains shown, Humanized; full-length IgG; also called humanized AB 4-8) VH: QVQLVQSGAEVKKPGASVKVSCKASGYTFTSYTMHWVRQAPGQGLEWMGYINPSSTYTHYIKKFKDRVTMTADTSTSTVYMELSSLRSEDTAVYYCSRGELGGFAYWGQGTLVTVSS VL: DVVMTQSPLSLPVTLGQPASISCRSSQSLVHSDGNTYLNWYQQRPGQSPRLLIYKVSNRFSGVPDRFSGSGSGTDFTLKISRVEAEDVGVYYCSQSTHVPYTFGQGTKLEIK | 3120 | 7310 | – | 4700 |
| AB4-12 (antibody, V domains shown, Humanized; full-length IgG; see note of AB4-8; also called humanized AB 4-12) VH: QVQLVQSGAEVKKPGASVKMSCKASGYTFTSYTMHWIRQAPGQGQEWIGYINPSSTYTHYIKKFKDRATLTADKSTSTAYMELSSLRSEDTAVYYCSRGELGGFAYWGQGTLVTVSS VL: DVVMTQSPLSLPVTLGQPASISCRSSQSLVHSDGNTYLNWYQQRPGQSPRLLIYKVSNRFSGVPDRFSGSGSGTDFTLKISRVEAEDVGVYYCSQSTHVPYTFGQGTKLEIK | 9690 | 24200 | – | 1130 |
| AB4-9 (antibody, V domains shown, Humanized; full-length IgG; see note of AB4-8; also called humanized AB 4-9) VH: QVQLVQSGAEVKKPGASVKMSCKASGYTFTSYTMHWIRQAPGQGLEWIGYINPSSTYTHYIKKFKDRATLTADTSTSTAYMELSSLRSEDTAVYYCSRGELGGFAYWGQGTLVTVSS VL: DVVMTQSPLSLPVTLGQPASISCRSSQSLVHSDGNTYLNWYQQRPGQSPRLLIYKVSNRFSGVPDRFSGSGSGTDFTLKISRVEAEDVGVYYCSQSTHVPYTFGQGTKLEIK | 3060 | 7790 | – | 1780 |
| AB4-11 (antibody, V domains shown, Humanized; full-length IgG; see note of AB4-8; also called humanized AB 4-11) VH: QVQLVQSGAEVKKPGASVKMSCKASGYTFTSYTMHWIRQAPGQGLEWIGYINPSSTYTHYIKKFKDRATLTADKSTSTAYMELSSLRSEDTAVYYCSRGELGGFAYWGQGTLVTVSS VL: DVVMTQSPLSLPVTLGQPASISCRSSQSLVHSDGNTYLNWYQQRPGQSPRLLIYKVSNRFSGVPDRFSGSGSGTDFTLKISRVEAEDVGVYYCSQSTHVPYTFGQGTKLEIK | 6390 | 9170 | – | 1230 |
| AB4-7 (antibody, V domains shown, Humanized; also called humanized AB 4-7) VH: QVQLVQSGAEVKKPGASVKMSCKASGYTFTSYTMHWIRQAPGQGQEWIGYINPSSTYTHYAQKFQGRATLTADKSTSTAYMELSSLRSEDTAVYYCSRGELGGFAYWGQGTLVTVSS VL: DVVMTQSPLSLPVTLGQPASISCRSSQSLVHSDGNTYLNWYQQRPGQSPRLLIYKVSNRFSGVPDRFSGSGSGTDFTLKISRVEAEDVGVYYCSQSTHVPYTFGQGTKLEIK | 2770 | 7560 | – | 6640 |
| AB4-chim (antibody, V domains shown, Parental antibody prior to humanization ('chim'); also called pre-humanized form of AB4) VH: QVQLQQSGAELARPGASVKMSCKASGYTFTSYTMHWIKQRPGQGQEWIGYINPSSTYTHYIKKFKDKATLTADKSSSTAYMQLRSLTSEDSAVYYCSRGELGGFAYWGQGTLVTVSA VL: DVVMTQTPLSLPVSLGDQASISCRSSQSLVHSDGNTYLNWYLQKPGQSPKLLIYKVSNRFSGVPDRFSGSGSGTDFTLKIRRVEAEDLGVYFCSQSTHVPYTFGGGTKLEIK | 19100 | 38400 | 64800 | – |
